From the supplement of paper PMC5998384 come the findings set out here.

For data set [1], the system named is HeLa Kyoto. Nature of the data set: solubility in G1/S (NP-40 vs SDS abundance) (log2 ratio); higher = more soluble. The settings on record: cell cycle stage: G1/S.
Data set [2] deals with HeLa Kyoto. Nature of the data set: thermal stability score vs G1/S (z-score of summed log2 fold changes over temperatures); higher = more thermally stable than in G1/S.
Data set [3] deals with HeLa Kyoto. Nature of the data set: solubility change mitosis vs G1/S (difference of NP-40 vs SDS log2 ratios) (log2 ratio difference); higher = more soluble in mitosis.
In data set [4] the test system is HeLa Kyoto. Put plainly: melting temperature (median over replicates), in situ; higher = more thermally stable.
The mark [5] stands for this setting: cell cycle stage: early G1 (4.5 h after nocodazole release).
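Wherever melting temperature (median over replicates), in situ is given: HeLa Kyoto cells synchronized by double thymidine or nocodazole block, proteins quantified by TMT10plex mass spectrometry, three independent biological replicates.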
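Wherever solubility change mitosis vs G1/S (difference of NP-40 vs SDS log2 ratios) is given: synchronized HeLa Kyoto cells (double thymidine block for G1/S, nocodazole release for mitosis), protein amounts in NP-40 versus SDS lysates quantified by mass spectrometry, three biological replicates.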
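Wherever solubility in G1/S (NP-40 vs SDS abundance) is given: HeLa Kyoto cells arrested at G1/S by double thymidine block, proteins quantified by TMT10plex mass spectrometry in mild NP-40 versus SDS extracts, three biological replicates.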
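Wherever thermal stability score vs G1/S (z-score of summed log2 fold changes over temperatures) is given: synchronized HeLa Kyoto cells, proteins quantified by TMT10plex mass spectrometry, three biological replicates, mitosis taken 0.5 h after nocodazole release, G1/S directly after double thymidine block.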

For “MDLLFGRRKTPEELLRQNQRALNRAMRELDRERQKLETQEKKIIADIKKMAKQGQMDAVRIMAKDLVRTRRYVRKFVLMRANIQAVSLKIQTLKSNNSMAQAMKGVTKAMGTMNRQLKLPQIQKIMMEFERQAEIMDMKEEMMNDAIDDAMGDEEDEEESDAVVSQVLDELGLSLTDELSNLPSTGGSLSVAAGGKKAEAAASALADADADLEERLKNLRRD [CHMP2A]”, in the data set with HeLa Kyoto [1], the “solubility in G1/S (log2)” value was 0.537. For the same sequence, the figures for the thermal stability score with HeLa Kyoto [2] (setting [5]) and with HeLa Kyoto [2] (cell cycle stage: mitosis) were 0.326 and 0.533, respectively. Besides, the “solubility change mitosis (log2)” value in the data set with HeLa Kyoto [3] is 0.0293. Besides, the values for the melting temperature in the data set with HeLa Kyoto [4] (cell cycle stage: G1/S) and in the data set on HeLa Kyoto [4] (cell cycle stage: mitosis) were 53 °C and 54.4 °C, respectively.

As for “MDLNSASTVVLQVLTQATSQDTAVLKPAEEQLKQWETQPGFYSVLLNIFTNHTLDINVRWLAVLYFKHGIDRYWRRVAPHALSEEEKTTLRAGLITNFNEPINQIATQIAVLIAKVARLDCPRQWPELIPTLIESVKVQDDLRQHRALLTFYHVTKTLASKRLAADRKLFYDLASGIYNFACSLWNHHTDTFLQEVSSGNEAAILSSLERTLLSLKVLRKLTVNGFVEPHKNMEVMGFLHGIFERLKQFLECSRSIGTDNVCRDRLEKTIILFTKVLLDFLDQHPFSFTPLIQRSLEFSVSYVFTEVGEGVTFERFIVQCMNLIKMIVKNYAYKPSKNFEDSSPETLEAHKIKMAFFTYPTLTEICRRLVSHYFLLTEEELTMWEEDPEGFTVEETGGDSWKYSLRPCTEVLFIDIFHEYNQTLTPVLLEMMQTLQGPTNVEDMNALLIKDAVYNAVGLAAYELFDSVDFDQWFKNQLLPELQVIHNRYKPLRRRVIWLIGQWISVKFKSDLRPMLYEAICNLLQDQDLVVRIETATTLKLTVDDFEFRTDQFLPYLETMFTLLFQLLQQVTECDTKMHVLHVLSCVIERVNMQIRPYVGCLVQYLPLLWKQSEEHNMLRCAILTTLIHLVQGLGADSKNLYPFLLPVIQLSTDVSQPPHVYLLEDGLELWLVTLENSPCITPELLRIFQNMSPLLELSSENLRTCFKIINGYIFLSSTEFLQTYAVGLCQSFCELLKEITTEGQVQVLKVVENALKVNPILGPQMFQPILPYVFKGIIEGERYPVVMSTYLGVMGRVLLQNTSFFSSLLNEMAHKFNQEMDQLLGNMIEMWVDRMDNITQPERRKLSALALLSLLPSDNSVIQDKFCGIINISVEGLHDVMTEDPETGTYKDCMLMSHLEEPKVTEDEEPPTEQDKRKKMLALKDPVHTVSLQQFIYEKLKAQQEMLGEQGFQSLMETVDTEIVTQLQEFLQGF [IPO11]”, the “solubility in G1/S (log2)” value with HeLa Kyoto [1] is -0.209. Also, the thermal stability score was 1.33 in the data set with HeLa Kyoto [2] (setting [5]) and 0.273 in the data set on HeLa Kyoto [2] (cell cycle stage: mitosis). In the data set on HeLa Kyoto [3], the “solubility change mitosis (log2)” value was -0.25. Moreover, the melting temperature in the data set with HeLa Kyoto [4] (cell cycle stage: G1/S) came out at 51.5 °C; in the data set on HeLa Kyoto [4] (cell cycle stage: mitosis) it was 50.8 °C.

On to “MDLRQFLMCLSLCTAFALSKPTEKKDRVHHEPQLSDKVHNDAQSFDYDHDAFLGAEEAKTFDQLTPEESKERLGKIVSKIDGDKDGFVTVDELKDWIKFAQKRWIYEDVERQWKGHDLNEDGLVSWEEYKNATYGYVLDDPDPDDGFNYKQMMVRDERRFKMADKDGDLIATKEEFTAFLHPEEYDYMKDIVVQETMEDIDKNADGFIDLEEYIGDMYSHDGNTDEPEWVKTEREQFVEFRDKNRDGKMDKEETKDWILPSDYDHAEAEARHLVYESDQNKDGKLTKEEIVDKYDLFVGSQATDFGEALVRHDEF [CALU]”, for which the “solubility in G1/S (log2)” value in the data set with HeLa Kyoto [1] is 0.281. Moreover, the thermal stability score is 1.04 in the data set on HeLa Kyoto [2] (setting [5]) and -0.549 in the data set on HeLa Kyoto [2] (cell cycle stage: mitosis). Further, the “solubility change mitosis (log2)” value in the data set on HeLa Kyoto [3] was found to be 0.167. Moreover, the melting temperature in the data set on HeLa Kyoto [4] (cell cycle stage: G1/S) was 57.8 °C; in the data set on HeLa Kyoto [4] (cell cycle stage: mitosis), 60.3 °C.

On to “MDLYSTPAAALDRFVARRLQPRKEFVEKARRALGALAAALRERGGRLGAAAPRVLKTVKGGSSGRGTALKGGCDSELVIFLDCFKSYVDQRARRAEILSEMRASLESWWQNPVPGLRLTFPEQSVPGALQFRLTSVDLEDWMDVSLVPAFNVLGQAGSGVKPKPQVYSTLLNSGCQGGEHAACFTELRRNFVNIRPAKLKNLILLVKHWYHQVCLQGLWKETLPPVYALELLTIFAWEQGCKKDAFSLAEGLRTVLGLIQQHQHLCVFWTVNYGFEDPAVGQFLQRQLKRPRPVILDPADPTWDLGNGAAWHWDLLAQEAASCYDHPCFLRGMGDPVQSWKGPGLPRAGCSGLGHPIQLDPNQKTPENSKSLNAVYPRAGSKPPSCPAPGPTGAASIVPSVPGMALDLSQIPTKELDRFIQDHLKPSPQFQEQVKKAIDIILRCLHENCVHKASRVSKGGSFGRGTDLRDGCDVELIIFLNCFTDYKDQGPRRAEILDEMRAQLESWWQDQVPSLSLQFPEQNVPEALQFQLVSTALKSWTDVSLLPAFDAVGQLSSGTKPNPQVYSRLLTSGCQEGEHKACFAELRRNFMNIRPVKLKNLILLVKHWYRQVAAQNKGKGPAPASLPPAYALELLTIFAWEQGCRQDCFNMAQGFRTVLGLVQQHQQLCVYWTVNYSTEDPAMRMHLLGQLRKPRPLVLDPADPTWNVGHGSWELLAQEAAALGMQACFLSRDGTSVQPWDVMPALLYQTPAGDLDKFISEFLQPNRQFLAQVNKAVDTICSFLKENCFRNSPIKVIKVVKGGSSAKGTALRGRSDADLVVFLSCFSQFTEQGNKRAEIISEIRAQLEACQQERQFEVKFEVSKWENPRVLSFSLTSQTMLDQSVDFDVLPAFDALGQLVSGSRPSSQVYVDLIHSYSNAGEYSTCFTELQRDFIISRPTKLKSLIRLVKHWYQQCTKISKGRGSLPPQHGLELLTVYAWEQGGKDSQFNMAEGFRTVLELVTQYRQLCIYWTINYNAKDKTVGDFLKQQLQKPRPIILDPADPTGNLGHNARWDLLAKEAAACTSALCCMGRNGIPIQPWPVKAAV [OAS3]”, for which, in the data set with HeLa Kyoto [1], the “solubility in G1/S (log2)” value was -0.177. The thermal stability score with HeLa Kyoto [2] (setting [5]) came to 1.51; with HeLa Kyoto [2] (cell cycle stage: mitosis) it was 1.6. For the same sequence, in the data set with HeLa Kyoto [3], the “solubility change mitosis (log2)” value is -0.109. For the same sequence, the values for the melting temperature with HeLa Kyoto [4] (cell cycle stage: G1/S) and in the data set with HeLa Kyoto [4] (cell cycle stage: mitosis) were 50.3 °C and 49.8 °C, respectively.
